B1: DYRK1B (parent)
chain: YQGPGTRRLQEVLGVQTGGPGGRR
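Also: lentivirally expressed fusions sorted by FACS into six bins by GFP to DsRed ratio, PSI derived from sequencing read proportions per bin multiplied by bin number.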

Variants of: B1
Test: protein stability index of a GFP-peptide fusion (GPS, HEK-293T) (PSI 1-6); higher = more stable
Conditions: c terminus: a fixed tail appended
For YQGPGTRRLQEVLGVQTGGPVGRR [G21V], the protein stability index was 2.2. YQGPGTRRLQEVLGVQTGGPQGRR [G21Q] gave a protein stability index of 3.4. For YQGPGTRRLQEVLGVQTGGPKGRR [G21K], the protein stability index was 2.74. In the case of YQGPGTRRLQEVLGVQTGGPNGRR [G21N], the protein stability index is reported as 3.04. For YQGPGTRRLQEVLGVQTGGPMGRR [G21M], the protein stability index was 3.48. YQGPGTRRLQEVLGVQTGGPWGRR [G21W] showed a protein stability index of 2.17. Work on YQGPGTRRLQEVLGVQTGGPIGRR [G21I] yielded a protein stability index of 3.15. Work on YQGPGTRRLQEVLGVQTGGPYGRR [G21Y] yielded a protein stability index of 2.68. Variant YQGPGTRRLQEVLGVQTGGPAGRR [G21A] has a protein stability index of 3.25. Work on YQGPGTRRLQEVLGVQTGGPPGRR [G21P] yielded a protein stability index of 3.17. In the case of YQGPGTRRLQEVLGVQTGGPSGRR [G21S], the protein stability index is reported as 3.04. YQGPGTRRLQEVLGVQTGGPDGRR [G21D] showed a protein stability index of 3.88. Work on YQGPGTRRLQEVLGVQTGGIGGRR [P20I] yielded a protein stability index of 2.84. Variant YQGPGTRRLQEVLGVQTGGQGGRR [P20Q] has a protein stability index of 3.16. In the case of YQGPGTRRLQEVLGVQTGGAGGRR [P20A], the protein stability index is reported as 3.22. With YQGPGTRRLQEVLGVQTGGTGGRR [P20T] the protein stability index was 3.32. Variant YQGPGTRRLQEVLGVQTGGSGGRR [P20S] has a protein stability index of 3.28. Variant YQGPGTRRLQEVLGVQTGGGGGRR [P20G] has a protein stability index of 3.15. For YQGPGTRRLQEVLGVQTGGDGGRR [P20D], the protein stability index was 3.51. Variant YQGPGTRRLQEVLGVQTGGWGGRR [P20W] has a protein stability index of 2.02. YQGPGTRRLQEVLGVQTGGCGGRR [P20C] showed a protein stability index of 3.49. YQGPGTRRLQEVLGVQTGGMGGRR [P20M] gave a protein stability index of 3.02. For YQGPGTRRLQEVLGVQTGGEGGRR [P20E], the protein stability index was 3.3. In the case of YQGPGTRRLQEVLGVQTGGLGGRR [P20L], the protein stability index is reported as 2.82. For YQGPGTRRLQEVLGVQTGGNGGRR [P20N], the protein stability index was 3.1. YQGPGTRRLQEVLGVQTGGFGGRR [P20F] showed a protein stability index of 2.32. YQGPGTRRLQEVLGVQTGGVGGRR [P20V] showed a protein stability index of 2.76. Variant YQGPGTRRLQEVLGVQTGGRGGRR [P20R] has a protein stability index of 3.39. In the case of YQGPGTRRLQEVLGVQTGGYGGRR [P20Y], the protein stability index is reported as 2.77. YQGPGTRRLQEVLGVQTGGKGGRR [P20K] gave a protein stability index of 3.83. YQGPGTRRLQEVLGVQTGGHGGRR [P20H] gave a protein stability index of 2.81. Work on YQGPGTRRLQEVLGVQTVGPGGRR [G18V] yielded a protein stability index of 3.06. YQGPGTRRLQEVLGVQTWGPGGRR [G18W] gave a protein stability index of 2.81. For YQGPGTRRLQEVLGVQTYGPGGRR [G18Y], the protein stability index was 2.94. Variant YQGPGTRRLQEVLGVQTSGPGGRR [G18S] has a protein stability index of 3.15. Variant YQGPGTRRLQEVLGVQTQGPGGRR [G18Q] has a protein stability index of 3.68. With YQGPGTRRLQEVLGVQTTGPGGRR [G18T] the protein stability index was 3.51. In the case of YQGPGTRRLQEVLGVQTGGPGGRY [R24Y], the protein stability index is reported as 3.24. YQGPGTRRLQEVLGVQTGGPGGRQ [R24Q] gave a protein stability index of 3.06. Variant YQGPGTRRLQEVLGVQTGGPGGRL [R24L] has a protein stability index of 2.87. YQGPGTRRLQEVLGVQTGGPGGRI [R24I] showed a protein stability index of 3.75. Work on YQGPGTRRLQEVLGVQTGGPGGRK [R24K] yielded a protein stability index of 3.12. With YQGPGTRRLQEVLGVQTGGPGGRF [R24F] the protein stability index was 2.49. Work on YQGPGTRRLQEVLGVQTGGPGGRG [R24G] yielded a protein stability index of 3.4. In the case of YQGPGTRRLQEVLGVQTGGPGGRV [R24V], the protein stability index is reported as 3.54. Variant YQGPGTRRLQEVLGVQTGGPGGRN [R24N] has a protein stability index of 3.43. Variant YQGPGTRRLQEVLGVQTGGPGGRH [R24H] has a protein stability index of 3.17. With YQGPGTRRLQEVLGVQTGGPGGRP [R24P] the protein stability index was 3.45. For YQGPGTRRLQEVLGVQTGGPGGRS [R24S], the protein stability index was 3.45. For YQGPGTRRLQEVLGVQTGGPGGRD [R24D], the protein stability index was 3.51. With YQGPGTRRLQEVLGVQTGGPGGRM [R24M] the protein stability index was 2.5. In the case of YQGPGTRRLQEVLGVQTGGPGGRA [R24A], the protein stability index is reported as 3.23. In the case of YQGPGTRRLQEVLGVQTGGPGGRW [R24W], the protein stability index is reported as 2.73. YQGPGTRRLQEVLGVQTGGPGGRC [R24C] showed a protein stability index of 3.18. YQGPGTRRLQEVLGVQTGGPGGRE [R24E] showed a protein stability index of 3.67. Variant YQGPGTRRLQEVLGVQTGGPGGRT [R24T] has a protein stability index of 3.02. Variant YQGPGTRRLQEVLGVQTGGPGGFR [R23F] has a protein stability index of 2.37. YQGPGTRRLQEVLGVQTGGPGGPR [R23P] showed a protein stability index of 3.26. YQGPGTRRLQEVLGVQTGGPGGMR [R23M] showed a protein stability index of 3.27. In the case of YQGPGTRRLQEVLGVQTGGPGGAR [R23A], the protein stability index is reported as 4.05. With YQGPGTRRLQEVLGVQTGGPGGIR [R23I] the protein stability index was 2.75. Work on YQGPGTRRLQEVLGVQTGGPGGCR [R23C] yielded a protein stability index of 2.87. In the case of YQGPGTRRLQEVLGVQTGGPGGVR [R23V], the protein stability index is reported as 2.88. In the case of YQGPGTRRLQEVLGVQTGGPGGER [R23E], the protein stability index is reported as 3.32. In the case of YQGPGTRRLQEVLGVQTGGPGGHR [R23H], the protein stability index is reported as 3.1. YQGPGTRRLQEVLGVQTGGPGGNR [R23N] showed a protein stability index of 3.29. Work on YQGPGTRRLQEVLGVQTGGPGGDR [R23D] yielded a protein stability index of 3.8. YQGPGTRRLQEVLGVQTGGPGGWR [R23W] showed a protein stability index of 2.22. With YQGPGTRRLQEVLGVQTGGPGGYR [R23Y] the protein stability index was 2.67. YQGPGTRRLQEVLGVQTGGPGGQR [R23Q] gave a protein stability index of 3.38. YQGPGTRRLQEVLGVQTGGPGGGR [R23G] gave a protein stability index of 3.01. Variant YQGPGTRRLQEVLGVQTGGPGGTR [R23T] has a protein stability index of 3.23. Variant YQGPGTRRLQEVLGVQTGGPGGLR [R23L] has a protein stability index of 3.12. Variant YQGPGTRRLQEVLGVQTGGPGGSR [R23S] has a protein stability index of 2.59. In the case of YQGPGTRRLQEVLGVQTGGPGGKR [R23K], the protein stability index is reported as 2.55. Variant YQGPGTRRLQEVLGVQTGMPGGRR [G19M] has a protein stability index of 2.75. With YQGPGTRRLQEVLGVQTGNPGGRR [G19N] the protein stability index was 3.05. Variant YQGPGTRRLQEVLGVQTGCPGGRR [G19C] has a protein stability index of 2.87. For YQGPGTRRLQEVLGVQTGQPGGRR [G19Q], the protein stability index was 3.05. YQGPGTRRLQEVLGVQTGYPGGRR [G19Y] gave a protein stability index of 2.9. Work on YQGPGTRRLQEVLGVQTGIPGGRR [G19I] yielded a protein stability index of 2.85. In the case of YQGPGTRRLQEVLGVQTGDPGGRR [G19D], the protein stability index is reported as 3.58. Variant YQGPGTRRLQEVLGVQTGRPGGRR [G19R] has a protein stability index of 2.47. YQGPGTRRLQEVLGVQTGEPGGRR [G19E] gave a protein stability index of 3.63. Variant YQGPGTRRLQEVLGVQTGTPGGRR [G19T] has a protein stability index of 3.44. For YQGPGTRRLQEVLGVQTGVPGGRR [G19V], the protein stability index was 3.19. With YQGPGTRRLQEVLGVQTGSPGGRR [G19S] the protein stability index was 2.81. YQGPGTRRLQEVLGVQTGWPGGRR [G19W] showed a protein stability index of 2.14. In the case of YQGPGTRRLQEVLGVQTGFPGGRR [G19F], the protein stability index is reported as 3.33. YQGPGTRRLQEVLGVQTGHPGGRR [G19H] gave a protein stability index of 2.98. For YQGPGTRRLQEVLGVQTGLPGGRR [G19L], the protein stability index was 2.81. In the case of YQGPGTRRLQEVLGVQTGAPGGRR [G19A], the protein stability index is reported as 3.34. YQGPGTRRLQEVLGVQTGPPGGRR [G19P] gave a protein stability index of 3.66. YQGPGTRRLQEVLGVQTGKPGGRR [G19K] showed a protein stability index of 3.43.
